The values below come from PMC9080080 (Cell Reports, 2022).

This assay addresses SARS-CoV S2P protein (SARS-CoV, strain  (reference …, UniProt P59594, stabilised)). Nature of the assay: SPR. In general terms: In SPR one partner is held on a chip, and binding of the other changes the refractive index at the surface.

B1: XMA09 (antibody, V domains shown)
VH: QVQLVQSGAEVKKPGSSVKVSCKASGGTFSSFAISWVRQAPGQGLEWMGGIIPIYGTANYAQKFQGRVTITADESTSTAYMDLSSLRSEDTAVYYCARDGSSTYYPHNWFDPWGQGTLVTVSS
VL: QSVLTQPPSVSGAPGQRVTISCTGSSSNIGSGYDVHWYQQLPGTAPKLLIYGNSNRPSGVPDRFSGSKSGTSASLAITGLQAEDEADYYCQSYDSSLSGVFGTGTKVTVL
With B1, the binding result was “binds”.
